The target in data set [1] is T1, Drosophila melanogaster CIAO1 (Drosophila melanogaster, UniProt Q7K1Y4 1-335).
T1 sequence: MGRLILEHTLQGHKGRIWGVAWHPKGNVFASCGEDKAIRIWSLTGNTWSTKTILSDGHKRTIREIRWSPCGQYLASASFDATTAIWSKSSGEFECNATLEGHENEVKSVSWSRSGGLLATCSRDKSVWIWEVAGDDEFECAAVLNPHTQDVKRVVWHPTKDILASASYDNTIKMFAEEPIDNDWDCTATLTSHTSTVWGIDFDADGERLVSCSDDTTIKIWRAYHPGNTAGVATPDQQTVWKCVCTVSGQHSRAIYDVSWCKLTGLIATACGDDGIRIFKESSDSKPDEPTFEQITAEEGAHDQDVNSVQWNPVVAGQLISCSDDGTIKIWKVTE
The data set can be described thus: crystal structure.

In another data set the target is T2, full-length mouse MMS19 (mouse, UniProt Q9D071 1-1031).
T2 sequence: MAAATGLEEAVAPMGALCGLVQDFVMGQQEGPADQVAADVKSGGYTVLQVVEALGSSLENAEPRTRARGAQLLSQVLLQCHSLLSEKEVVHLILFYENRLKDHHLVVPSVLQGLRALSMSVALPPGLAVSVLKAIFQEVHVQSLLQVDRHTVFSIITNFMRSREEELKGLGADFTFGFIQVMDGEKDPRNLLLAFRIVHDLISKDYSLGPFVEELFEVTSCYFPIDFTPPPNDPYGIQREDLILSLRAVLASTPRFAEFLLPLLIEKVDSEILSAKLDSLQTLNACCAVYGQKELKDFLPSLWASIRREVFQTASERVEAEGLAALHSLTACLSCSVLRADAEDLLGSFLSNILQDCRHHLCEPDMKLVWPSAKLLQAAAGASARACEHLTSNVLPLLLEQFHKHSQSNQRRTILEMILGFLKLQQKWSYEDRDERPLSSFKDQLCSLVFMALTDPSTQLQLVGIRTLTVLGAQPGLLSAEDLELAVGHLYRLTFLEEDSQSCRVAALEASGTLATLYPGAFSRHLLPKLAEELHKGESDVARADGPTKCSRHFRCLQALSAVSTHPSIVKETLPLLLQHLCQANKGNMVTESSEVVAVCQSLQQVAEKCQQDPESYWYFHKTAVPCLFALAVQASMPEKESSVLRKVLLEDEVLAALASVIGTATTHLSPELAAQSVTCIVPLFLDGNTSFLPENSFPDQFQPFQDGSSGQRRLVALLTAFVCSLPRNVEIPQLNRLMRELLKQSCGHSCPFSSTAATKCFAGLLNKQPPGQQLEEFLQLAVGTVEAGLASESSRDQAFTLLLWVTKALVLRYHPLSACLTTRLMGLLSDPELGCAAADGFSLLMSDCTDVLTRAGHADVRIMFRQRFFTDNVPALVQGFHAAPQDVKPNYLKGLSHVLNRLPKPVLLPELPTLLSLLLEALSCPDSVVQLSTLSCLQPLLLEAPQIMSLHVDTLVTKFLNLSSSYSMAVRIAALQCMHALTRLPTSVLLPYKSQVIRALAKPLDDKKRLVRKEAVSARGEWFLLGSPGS
The data set can be described thus: crystal structure.

The data set “crystal structure” deals with the molecule itself. The data set can be described thus: crystal structure.
In data set [2] the target is full-length human CIA targeting complex (MMS19-CIAO1-CIAO2B) (human, UniProt Q96T76;O76071;Q9Y3D0). Nature of the data set: ITC. On the technique in general: In ITC the heat of successive injections is recorded.
Chain of full-length human CIA targeting complex (MMS19-CIAO1-CIAO2B) (O76071 whole entry, one chain of several): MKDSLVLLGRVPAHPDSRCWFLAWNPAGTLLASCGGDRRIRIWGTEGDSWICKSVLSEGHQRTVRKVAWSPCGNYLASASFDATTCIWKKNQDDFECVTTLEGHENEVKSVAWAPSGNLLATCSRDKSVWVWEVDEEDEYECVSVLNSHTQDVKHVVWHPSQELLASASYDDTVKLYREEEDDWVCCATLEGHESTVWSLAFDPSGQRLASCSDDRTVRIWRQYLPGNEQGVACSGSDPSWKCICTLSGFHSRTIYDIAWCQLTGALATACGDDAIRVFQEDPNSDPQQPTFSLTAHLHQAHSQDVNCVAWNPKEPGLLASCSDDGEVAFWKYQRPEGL
For data set [3], the target named is human MMS19^381-1030-CIAO1-CIAO2B complex (human, UniProt Q96T76;O76071;Q9Y3D0). The data set can be described thus: ITC.
Chain of human MMS19^381-1030-CIAO1-CIAO2B complex (O76071 whole entry, one chain of several): as above
The target of data set [4] is human CIAO1-CIAO2B core complex (human, UniProt O76071;Q9Y3D0). The data set can be described thus: ITC.
Chain of human CIAO1-CIAO2B core complex (O76071 whole entry, one chain of several): as above
Data set [5] deals with the molecule itself. The data set can be described thus: negative-stain electron microscopy.

What is called Kd is the constant that tells how readily two partners part at equilibrium. Higher therefore signals weaker binding.

B1: Drosophila melanogaster CIAO2B (natural protein)
chain: MPTEIENINPNVYDRIKERVLTANEEDENVPDPFDKREIFDLIRNINDPEHPLTLEELHVVQEDLIRINDSQNSVHISFTPTIPHCSMATLIGLSIRVKLLRSLPPRFKVTVEITPGTHASELAVNKQLADKERVAAALENNHLAEVINQCIAAKG
Regarding B1, the binding result (in data set [1]; in the data set with full-length mouse MMS19; in the data set “crystal structure”) was “binds” in each case.

B2: Drosophila melanogaster CIAO1-CIAO2B core complex (complex)
chain 1: MGRLILEHTLQGHKGRIWGVAWHPKGNVFASCGEDKAIRIWSLTGNTWSTKTILSDGHKRTIREIRWSPCGQYLASASFDATTAIWSKSSGEFECNATLEGHENEVKSVSWSRSGGLLATCSRDKSVWIWEVAGDDEFECAAVLNPHTQDVKRVVWHPTKDILASASYDNTIKMFAEEPIDNDWDCTATLTSHTSTVWGIDFDADGERLVSCSDDTTIKIWRAYHPGNTAGVATPDQQTVWKCVCTVSGQHSRAIYDVSWCKLTGLIATACGDDGIRIFKESSDSKPDEPTFEQITAEEGAHDQDVNSVQWNPVVAGQLISCSDDGTIKIWKVTE
chain 2: MPTEIENINPNVYDRIKERVLTANEEDENVPDPFDKREIFDLIRNINDPEHPLTLEELHVVQEDLIRINDSQNSVHISFTPTIPHCSMATLIGLSIRVKLLRSLPPRFKVTVEITPGTHASELAVNKQLADKERVAAALENNHLAEVINQCIAAKG
On to B2, for which the binding result with full-length mouse MMS19 is given as “binds”.

B3: human primase (PriL-PriS heterodimer) (complex)
chain 1: MEFSGRKWRKLRLAGDQRNASYPHCLQFYLQPPSENISLIEFENLAIDRVKLLKSVENLGVSYVKGTEQYQSKLESELRKLKFSYRENLEDEYEPRRRDHISHFILRLAYCQSEELRRWFIQQEMDLLRFRFSILPKDKIQDFLKDSQLQFEAISDEEKTLREQEIVASSPSLSGLKLGFESIYKIPFADALDLFRGRKVYLEDGFAYVPLKDIVAIILNEFRAKLSKALALTARSLPAVQSDERLQPLLNHLSHSYTGQDYSTQGNVGKISLDQIDLLSTKSFPPCMRQLHKALRENHHLRHGGRMQYGLFLKGIGLTLEQALQFWKQEFIKGKMDPDKFDKGYSYNIRHSFGKEGKRTDYTPFSCLKIILSNPPSQGDYHGCPFRHSDPELLKQKLQSYKISPGGISQILDLVKGTHYQVACQKYFEMIHNVDDCGFSLNHPNQFFCESQRILNGGKDIKKEPIQPETPQPKPSVQKTKDASSALASLNSSLEMDMEGLEDYFSEDS
chain 2: METFDPTELPELLKLYYRRLFPYSQYYRWLNYGGVIKNYFQHREFSFTLKDDIYIRYQSFNNQSDLEKEMQKMNPYKIDIGAVYSHRPNQHNTVKLGAFQAQEKELVFDIDMTDYDDVRRCCSSADICPKCWTLMTMAIRIIDRALKEDFGFKHRLWVYSGRRGVHCWVCDESVRKLSSAVRSGIVEYLSLVKGGQDVKKKVHLSEKIHPFIRKSINIIKKYFEEYALVNQDILENKESWDKILALVPETIHDELQQSFQKSHNSLQRWEHLKKVASRYQNNIKNDKYGPWLEWEIMLQYCFPRLDINVSKGINHLLKSPFSVHPKTGRISVPIDLQKVDQFDPFTVPTISFICRELDAISTNEEEKEENEAESDVKHRTRDYKKTSLAPYVKVFEHFLENLDKSRKGELLKKSDLQKDF
With B3, the Kd came to 35 nM in data set [2] and 508 nM in data set [3].

B4: human primase small subunit PriS (natural protein)
chain: METFDPTELPELLKLYYRRLFPYSQYYRWLNYGGVIKNYFQHREFSFTLKDDIYIRYQSFNNQSDLEKEMQKMNPYKIDIGAVYSHRPNQHNTVKLGAFQAQEKELVFDIDMTDYDDVRRCCSSADICPKCWTLMTMAIRIIDRALKEDFGFKHRLWVYSGRRGVHCWVCDESVRKLSSAVRSGIVEYLSLVKGGQDVKKKVHLSEKIHPFIRKSINIIKKYFEEYALVNQDILENKESWDKILALVPETIHDELQQSFQKSHNSLQRWEHLKKVASRYQNNIKNDKYGPWLEWEIMLQYCFPRLDINVSKGINHLLKSPFSVHPKTGRISVPIDLQKVDQFDPFTVPTISFICRELDAISTNEEEKEENEAESDVKHRTRDYKKTSLAPYVKVFEHFLENLDKSRKGELLKKSDLQKDF
On to B4, for which the equilibrium dissociation constant (Kd) in data set [4] was 3100 nM.

B5: all-mouse CIA targeting complex (MmMMS19-MmCIAO1-CIAO2B) (complex)
chain 1: MAAATGLEEAVAPMGALCGLVQDFVMGQQEGPADQVAADVKSGGYTVLQVVEALGSSLENAEPRTRARGAQLLSQVLLQCHSLLSEKEVVHLILFYENRLKDHHLVVPSVLQGLRALSMSVALPPGLAVSVLKAIFQEVHVQSLLQVDRHTVFSIITNFMRSREEELKGLGADFTFGFIQVMDGEKDPRNLLLAFRIVHDLISKDYSLGPFVEELFEVTSCYFPIDFTPPPNDPYGIQREDLILSLRAVLASTPRFAEFLLPLLIEKVDSEILSAKLDSLQTLNACCAVYGQKELKDFLPSLWASIRREVFQTASERVEAEGLAALHSLTACLSCSVLRADAEDLLGSFLSNILQDCRHHLCEPDMKLVWPSAKLLQAAAGASARACEHLTSNVLPLLLEQFHKHSQSNQRRTILEMILGFLKLQQKWSYEDRDERPLSSFKDQLCSLVFMALTDPSTQLQLVGIRTLTVLGAQPGLLSAEDLELAVGHLYRLTFLEEDSQSCRVAALEASGTLATLYPGAFSRHLLPKLAEELHKGESDVARADGPTKCSRHFRCLQALSAVSTHPSIVKETLPLLLQHLCQANKGNMVTESSEVVAVCQSLQQVAEKCQQDPESYWYFHKTAVPCLFALAVQASMPEKESSVLRKVLLEDEVLAALASVIGTATTHLSPELAAQSVTCIVPLFLDGNTSFLPENSFPDQFQPFQDGSSGQRRLVALLTAFVCSLPRNVEIPQLNRLMRELLKQSCGHSCPFSSTAATKCFAGLLNKQPPGQQLEEFLQLAVGTVEAGLASESSRDQAFTLLLWVTKALVLRYHPLSACLTTRLMGLLSDPELGCAAADGFSLLMSDCTDVLTRAGHADVRIMFRQRFFTDNVPALVQGFHAAPQDVKPNYLKGLSHVLNRLPKPVLLPELPTLLSLLLEALSCPDSVVQLSTLSCLQPLLLEAPQIMSLHVDTLVTKFLNLSSSYSMAVRIAALQCMHALTRLPTSVLLPYKSQVIRALAKPLDDKKRLVRKEAVSARGEWFLLGSPGS
chain 2: not shown
chain 3: MVGGGGSGGGLLENANPLIYERSGERPVTAGEEDEEVPDSIDAREIFDLIRSINDPEHPLTLEELNVVEQVRIQVSDPESTVAVAFTPTIPHCSMATLIGLSIKVKLLRSLPQRFKMDVHITPGTHASEHAVNKQLADKERVAAALENTHLLEVVNQCLSARS
Consider B5, for which, in data set [5], the binding result is “binds”.
